{
  "source": "paper PMC12802937",
  "about": "(Nucleic Acids Research, 2026)",
  "binders": {"B1": {"name": "Lge1-CT (Lge1 residues 261–332), intein-chitin binding domain (CBD) tag construct (domain or fragment, budding yeast, UniProt Q02796 261-332, looked up)", "chain": "KNVKKTNNTESECEKAREVFKESDSIDSALEELNLKINSNELELRLLNNQCDKHALNIQLTQEKLDSLLLMQ", "notes": "Lge1, budding yeast, residues 261-332; residues 268–331 resolved in the electron density; the intein-CBD tag is named on the protein in the pull-down; also called intein-CBD-fused Lge1-CT; intein-CBD-tagged Lge1-CT; source: E. coli BL21 Rosetta (DE3): cleared cell extract on chitin resin (pull-down); purified (chitin, heparin, gel filtration) for ITC and SPR; co-purified with Bre1-LR for the …"}},
  "assay_in_all_cases": "ITC; Lge1-CT (50–60 μM) injected into Bre1-LR (15 μM); 25°C, 20 mM TRIS (pH 7.5), 200 mM sodium chloride",
  "conditions_in_all_cases": "both partners purified",
  "key": {"Bre1-LR V382N": {"molecular_target": "T1, Bre1-LR V382N (budding yeast, UniProt Q07457 227-700, V382N)", "T1 construct": "source: E. coli BL21 Rosetta (DE3), purified (Ni-NTA, heparin, gel filtration)", "T1 sequence (looked up)": "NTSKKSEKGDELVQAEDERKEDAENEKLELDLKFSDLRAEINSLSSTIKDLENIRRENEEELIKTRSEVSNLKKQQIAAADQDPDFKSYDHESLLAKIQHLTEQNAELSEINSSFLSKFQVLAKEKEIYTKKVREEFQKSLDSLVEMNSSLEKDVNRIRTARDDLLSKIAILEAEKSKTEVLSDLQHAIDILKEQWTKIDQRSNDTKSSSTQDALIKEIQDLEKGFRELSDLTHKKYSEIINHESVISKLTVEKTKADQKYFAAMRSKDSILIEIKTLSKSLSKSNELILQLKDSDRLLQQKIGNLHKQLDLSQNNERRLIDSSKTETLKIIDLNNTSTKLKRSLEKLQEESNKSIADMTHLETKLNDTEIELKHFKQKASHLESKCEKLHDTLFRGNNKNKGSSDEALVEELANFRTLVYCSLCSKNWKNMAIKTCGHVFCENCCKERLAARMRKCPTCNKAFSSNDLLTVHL"}, "[1]": {"molecular_target": "T2, Bre1-LR (Bre1 residues 227–700, LBD and RING domains), 6× histidine tag (budding yeast, UniProt Q07457 227-700)", "T2 construct": "two Bre1 polypeptides form the dimeric coiled-coils of the LBD in the crystal structure; also called WT; source: E. coli BL21 Rosetta (DE3), purified (Ni-NTA, heparin, gel filtration)", "T2 sequence (looked up)": "T1 sequence (looked up) with N156V"}, "Bre1-LR K534E": {"molecular_target": "T3, Bre1-LR K534E (budding yeast, UniProt Q07457 227-700, K534E)", "T3 construct": "source: E. coli BL21 Rosetta (DE3), purified (Ni-NTA, heparin, gel filtration)", "T3 sequence (looked up)": "T1 sequence (looked up) with N156V, K308E"}, "Bre1-LR K379A": {"molecular_target": "T4, Bre1-LR K379A (budding yeast, UniProt Q07457 227-700, K379A)", "T4 construct": "source: E. coli BL21 Rosetta (DE3), purified (Ni-NTA, heparin, gel filtration)", "T4 sequence (looked up)": "T1 sequence (looked up) with K153A, N156V"}},
  "note": "Substitutions are numbered along the chain they refer to.",
  "data": [
    {"binder": "B1", "values": [
      {"measurement": "Kd", "setting": "Bre1-LR V382N", "result": "61.2 ± 14.4", "unit": "nM"},
      {"measurement": "dH", "setting": "Bre1-LR V382N", "result": "-53.1 ± 1.7", "unit": "kcal/mol"},
      {"measurement": "stoichiometry N", "setting": "Bre1-LR V382N", "result": "0.378 ± 0.005"},
      {"measurement": "Kd", "setting": "[1]", "result": "24.5 ± 4.5", "unit": "nM"},
      {"measurement": "dH", "setting": "[1]", "result": "-50.5 ± 1", "unit": "kcal/mol"},
      {"measurement": "stoichiometry N", "setting": "[1]", "result": "0.396 ± 0.003"},
      {"measurement": "Kd", "setting": "Bre1-LR K534E", "result": "36.9 ± 14.5", "unit": "nM"},
      {"measurement": "dH", "setting": "Bre1-LR K534E", "result": "-33.9 ± 2.1", "unit": "kcal/mol"},
      {"measurement": "stoichiometry N", "setting": "Bre1-LR K534E", "result": "0.469 ± 0.008"},
      {"measurement": "Kd", "setting": "Bre1-LR K379A", "result": "82.3 ± 20", "unit": "nM"},
      {"measurement": "dH", "setting": "Bre1-LR K379A", "result": "-44.1 ± 1.8", "unit": "kcal/mol"},
      {"measurement": "stoichiometry N", "setting": "Bre1-LR K379A", "result": "0.415 ± 0.007"}
    ]}
  ]
}
